The target in assay [1] is Mouse CD20 (endogenous, on mouse B cell lines and splenic B cells) (mouse) (UniProt P19437). As to the kind of experiment: flow cytometry on A20 cells; isotype control, PE-anti-mouse IgG2b. A general note: Flow cytometry measures light scatter and fluorescence of single cells or particles in a stream.
Assay [2] has the same target. As to the kind of experiment: flow cytometry on BCL 1/3B3 cells; isotype control, PE-anti-mouse IgG2b.
Assay [3] shares this target. As to the kind of experiment: flow cytometry on WEHI 279 cells; isotype control, PE-anti-mouse IgG2b.
Assay [4] shares this target. As to the kind of experiment: flow cytometry on NS-1 cells; isotype control, PE-anti-mouse IgG2b.
Assay [5] shares this target. Briefly: flow cytometry on wild type C57Bl/6 splenocytes; isotype control, PE-anti-mouse IgG2b.
In assay [6] the target is Mouse CD20 with C-terminal V5 peptide tag, on transfected 300.18 cells (mouse) (UniProt P19437). Briefly: flow cytometry on 300.18-CD20 cells; isotype control, PE-anti-mouse IgG2b.
Assay [7] deals with Mouse CD20 with C-terminal Idectin peptide tag, on transfected CHO cells (mouse) (UniProt P19437). Briefly: flow cytometry on CHO-CD20 cells; isotype control, PE-anti-mouse IgG2b.
Assay [8] addresses T1, Mouse CD20 with C-terminal V5 peptide tag, on transfected 300.18 cells (mouse, UniProt P19437 1-291).
T1 sequence: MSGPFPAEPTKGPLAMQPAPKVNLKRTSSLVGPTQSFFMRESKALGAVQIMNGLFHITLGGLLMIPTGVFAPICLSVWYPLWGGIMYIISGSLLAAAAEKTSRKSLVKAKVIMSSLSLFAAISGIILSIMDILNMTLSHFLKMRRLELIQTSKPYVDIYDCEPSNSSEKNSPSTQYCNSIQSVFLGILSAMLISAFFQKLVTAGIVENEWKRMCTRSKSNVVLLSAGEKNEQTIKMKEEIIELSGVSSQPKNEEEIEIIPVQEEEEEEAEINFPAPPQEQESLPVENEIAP
Briefly: flow cytometry on transfected 300.18 cells. How it is done:
(§1) Cell Staining and Flow Cytometry Analyses. All staining procedures were done in round bottom 96-well plates (Corning 3799) in FACS buffer (Dulbecco's PBS supplemented with 2% FBS, 0.05% sodium azide, 10% normal goat serum (heat inactivated), and 2.4G2 (1 ug/ml). None of the monoclonal secondary antibodies used recognized rat IgG2b (the 2.4G2 antibody). Cells (1×10⁵ to 1×10⁶) were incubated with primary or secondary antibodies for 45 minutes each on ice, washed between incubations, and resuspended at 1×10⁶ cells/ml in FACS buffer for analyses. Fluorescence was measured on a FACSArray or FACSCalibur and analyzed with BD FACSArray System Software or Cell Quest Pro software.

Assay [9] concerns the target T2, Mouse CD20 (endogenous, on mouse B cell lines and splenic B cells) (mouse, UniProt P19437 1-291).
T2 construct: also called mCD20
T2 sequence: T1 sequence
As to the kind of experiment: summary of Example 1; flow cytometry on cells. How it is done:
as §1

Assay [10] has as its target T3, Mouse CD20 with C-terminal Idectin peptide tag, on transfected CHO cells (mouse, UniProt P19437 1-291).
T3 construct: also called CHO-CD20; CHO cells transfected with mouse CD20; not shown: Idectin peptide tag at the 3' end of the gene (N5K-CtIdectin-B7.1-Ig vector)
T3 sequence: T1 sequence
As to the kind of experiment: flow cytometry on transfected CHO cells. Here is the method:
as §1

For assay [11], the target named is T4, Rat CD20 (rat, UniProt D4A4Y3 1-287).
T4 construct: whole, on cells; also called CD20 on rat splenic B cells and rat B cell lines
T4 sequence: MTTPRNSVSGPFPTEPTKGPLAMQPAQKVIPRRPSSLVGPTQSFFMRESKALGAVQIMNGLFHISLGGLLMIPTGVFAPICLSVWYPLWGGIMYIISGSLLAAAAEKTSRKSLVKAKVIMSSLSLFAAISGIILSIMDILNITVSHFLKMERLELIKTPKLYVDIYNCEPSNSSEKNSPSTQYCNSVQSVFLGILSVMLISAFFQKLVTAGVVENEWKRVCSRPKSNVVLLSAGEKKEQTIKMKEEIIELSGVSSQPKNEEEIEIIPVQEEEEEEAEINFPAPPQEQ
Briefly: flow cytometry staining of rat splenic B cells and two rat B cell lines.

On to IgG2b isotype control antibody, for which the geometric mean of fluorescence intensity in assay [1] was determined as 3.4; in assay [2] it was 4.2; in assay [3], 5.9; in [4] it was 3.8; in assay [5] it was 3.8; in assay [6] it was 4.1. In [7], the geometric mean of fluorescence intensity came out at 3.6.

B1: 18B12 IgG1 mouse anti-mouse CD20 monoclonal antibody (antibody, V domains shown)
VH: QVQLQQPGAELVRPGTSVKLSCKASGYTFTSYWMHWIKQRPGQGLEWIGVIDPSDNYTKYNQKFKGKATLTVDTSSSTAYMQLSSLTSEDSAVYFCAREGYYGSSPWFAYWGQGTLVTVSS
VL: QIVMSQSPAILSASPGEKVTMTCRARSSVSYIHWYQQKPGSSPKPWIYATSNLASGVPGRFSGSGSGTSYSLTITRVEAEDAATYYCQQWSSKPPTFGGGTKLEIKR
modifications: N-terminal pyroglutamic acid (N-terminal glutamine blocked)
notes: also called 18B12 antibody; 18B12-A1C3-H3
As for B1, the binding result in assay [8] was “binds”; in [9] it was “binds”; in [10] it was “binds”; in assay [11], “no binding”.

Source of the values: patent US20070136826A1 (Biogen, published 2007).
